In patent publication US10919943B2, “Mutant proteins enabling agrochemical control of plant gene expression” (The Regents of the University of California, priority 2016, dated 2021):

T1: PYR1 (Arabidopsis thaliana, UniProt O49686)
T1 construct: expressed in transfected cells; host or cells: S. cerevisiae strain Y190
T1 sequence (O49686 1-191): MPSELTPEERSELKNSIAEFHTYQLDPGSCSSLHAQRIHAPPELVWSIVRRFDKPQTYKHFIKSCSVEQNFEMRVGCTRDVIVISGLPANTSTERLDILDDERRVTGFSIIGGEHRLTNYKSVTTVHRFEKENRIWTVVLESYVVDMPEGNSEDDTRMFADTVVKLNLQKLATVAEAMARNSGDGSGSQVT


Biological target: T1, PYR1
Experiment: Yeast two hybrid of pACT-HAB1 site saturation mutants with pBD-PYR1 on 10 μM ABA, β-galactosidase staining
Format: cell-based
Parameters: key: x: Mutations in HAB1 that disrupt HAB1 interaction with PYR1
Conditions: S. cerevisiae Y190, 10 μM ABA; dead = lack of detectable staining in comparison to wild type control
From the text: To systematically define mutations in HAB1 that disrupt its binding to PYR1, we used site saturation mutagenesis to create a collection all possible single amino acid substitutions in 20 residues lining the PYR1 binding interface, and then assayed the ability of each mutant to bind PYR1 using the yeast two hybrid assay described above. We targeted the following residues for mutagenesis: R199, 5200, E201, E203, H245, G246, G247, S322, E323, T324, K381, I383, Q384, W385, Q386, R389, F391, G392, V393, and Y404. To create the collection of mutations, mutagenic “NNK” site directed mutagenesis primers were synthesized for each of the 20 positions and the primers used in QuickChange site-directed mutagenesis reactions using a previously described pACT-HAB1 template (Park et al., 2009). We note that this clone uses a HAB1 cDNA lacking its three N-terminal amino acids. The reaction products were digested with DpnI, and transformed into competent Escherichia coli DH5α cells and plasmid DNA for 96 colonies per site was isolated using Bioneer AccuPrep® Plasmid Mini Extraction Kit (Alameda, Calif.) and sequenced to identify mutants. This process identified most of the 19 desired mutations per target site; the remaining mutations were constructed directly using specific mutagenic primers. To interrogate the effects of the mutations on PYR1-HAB1 interactions, the mutant clones were individually transformed into S. cerevisiae strain Y190 containing pBD-PYR1 (Park et al., 2009). Yeast transformants were selected for the presence of plasmids on selective SD (-Leu,-Trp) plates and then spotted onto SD (-Leu,-Trp) agar plates supplemented with 10 μM ABA. After incubating the test plates at 30° C. for two days, the colonies were lysed with chloroform and stained to reveal […] expression levels. “Dead” mutants were defined by lack of detectable staining in comparison to a wild type pBD-PYR1/pACT-HAB1 control. This screening effort defined 163 mutations that disrupt the ABA-induced PYR1/HAB1 interaction (Table 2).

Molecule | Mutations in HAB1 that disrupt HAB1 interaction with PYR1
I383T: HAB1 mutant (protein, UniProt Q9CAJ0 23-511, looked up, variant I383T) Protein phosphatase 2C 16: SPVEITQLKNVTDAADLLSDSENQSFCNGGTECTMEDVSELEEVGEQDLLKTLSDTRSGSSNVFDEDDVLSVVEDNSAVISEGLLVVDAGSELSLSNTAMEIDNGRVLATAIIVGESSIEQVPTAEVLIAGVNQDTNTSEVVIRLPDENSNHLVKGRSVYELDCIPLWGTVSIQGNRSEMEDAFAVSPHFLKLPIKMLMGDHEGMSPSLTHLTGHFFGVYDGHGGHKVADYCRDRLHFALAEEIERIKDELCKRNTGEGRQVQWDKVFTSCFLTVDGEIEGKIGRAVVGSSDKVLEAVASETVGSTAVVALVCSSHIVVSNCGDSRAVLFRGKEAMPLSVDHKPDREDEYARIENAGGKVTQWQGARVFGVLAMSRSIGDRYLKPYVIPEPEVTFMPRSREDECLILASDGLWDVMNNQEVCEIARRRILMWHKKNGAPPLAERGKGIDPACQAAADYLSMLALQKGSKDNISIIVIDLKAQRKFKTRT | x
I383W: HAB1 mutant (protein, UniProt Q9CAJ0 23-511, looked up, variant I383W) Protein phosphatase 2C 16: SPVEITQLKNVTDAADLLSDSENQSFCNGGTECTMEDVSELEEVGEQDLLKTLSDTRSGSSNVFDEDDVLSVVEDNSAVISEGLLVVDAGSELSLSNTAMEIDNGRVLATAIIVGESSIEQVPTAEVLIAGVNQDTNTSEVVIRLPDENSNHLVKGRSVYELDCIPLWGTVSIQGNRSEMEDAFAVSPHFLKLPIKMLMGDHEGMSPSLTHLTGHFFGVYDGHGGHKVADYCRDRLHFALAEEIERIKDELCKRNTGEGRQVQWDKVFTSCFLTVDGEIEGKIGRAVVGSSDKVLEAVASETVGSTAVVALVCSSHIVVSNCGDSRAVLFRGKEAMPLSVDHKPDREDEYARIENAGGKVWQWQGARVFGVLAMSRSIGDRYLKPYVIPEPEVTFMPRSREDECLILASDGLWDVMNNQEVCEIARRRILMWHKKNGAPPLAERGKGIDPACQAAADYLSMLALQKGSKDNISIIVIDLKAQRKFKTRT | x
I383Y: HAB1 mutant (protein, UniProt Q9CAJ0 23-511, looked up, variant I383Y) Protein phosphatase 2C 16: SPVEITQLKNVTDAADLLSDSENQSFCNGGTECTMEDVSELEEVGEQDLLKTLSDTRSGSSNVFDEDDVLSVVEDNSAVISEGLLVVDAGSELSLSNTAMEIDNGRVLATAIIVGESSIEQVPTAEVLIAGVNQDTNTSEVVIRLPDENSNHLVKGRSVYELDCIPLWGTVSIQGNRSEMEDAFAVSPHFLKLPIKMLMGDHEGMSPSLTHLTGHFFGVYDGHGGHKVADYCRDRLHFALAEEIERIKDELCKRNTGEGRQVQWDKVFTSCFLTVDGEIEGKIGRAVVGSSDKVLEAVASETVGSTAVVALVCSSHIVVSNCGDSRAVLFRGKEAMPLSVDHKPDREDEYARIENAGGKVYQWQGARVFGVLAMSRSIGDRYLKPYVIPEPEVTFMPRSREDECLILASDGLWDVMNNQEVCEIARRRILMWHKKNGAPPLAERGKGIDPACQAAADYLSMLALQKGSKDNISIIVIDLKAQRKFKTRT | x
I383D: HAB1 mutant (protein, UniProt Q9CAJ0 23-511, looked up, variant I383D) Protein phosphatase 2C 16: SPVEITQLKNVTDAADLLSDSENQSFCNGGTECTMEDVSELEEVGEQDLLKTLSDTRSGSSNVFDEDDVLSVVEDNSAVISEGLLVVDAGSELSLSNTAMEIDNGRVLATAIIVGESSIEQVPTAEVLIAGVNQDTNTSEVVIRLPDENSNHLVKGRSVYELDCIPLWGTVSIQGNRSEMEDAFAVSPHFLKLPIKMLMGDHEGMSPSLTHLTGHFFGVYDGHGGHKVADYCRDRLHFALAEEIERIKDELCKRNTGEGRQVQWDKVFTSCFLTVDGEIEGKIGRAVVGSSDKVLEAVASETVGSTAVVALVCSSHIVVSNCGDSRAVLFRGKEAMPLSVDHKPDREDEYARIENAGGKVDQWQGARVFGVLAMSRSIGDRYLKPYVIPEPEVTFMPRSREDECLILASDGLWDVMNNQEVCEIARRRILMWHKKNGAPPLAERGKGIDPACQAAADYLSMLALQKGSKDNISIIVIDLKAQRKFKTRT | x
I383E: HAB1 mutant (protein, UniProt Q9CAJ0 23-511, looked up, variant I383E) Protein phosphatase 2C 16: SPVEITQLKNVTDAADLLSDSENQSFCNGGTECTMEDVSELEEVGEQDLLKTLSDTRSGSSNVFDEDDVLSVVEDNSAVISEGLLVVDAGSELSLSNTAMEIDNGRVLATAIIVGESSIEQVPTAEVLIAGVNQDTNTSEVVIRLPDENSNHLVKGRSVYELDCIPLWGTVSIQGNRSEMEDAFAVSPHFLKLPIKMLMGDHEGMSPSLTHLTGHFFGVYDGHGGHKVADYCRDRLHFALAEEIERIKDELCKRNTGEGRQVQWDKVFTSCFLTVDGEIEGKIGRAVVGSSDKVLEAVASETVGSTAVVALVCSSHIVVSNCGDSRAVLFRGKEAMPLSVDHKPDREDEYARIENAGGKVEQWQGARVFGVLAMSRSIGDRYLKPYVIPEPEVTFMPRSREDECLILASDGLWDVMNNQEVCEIARRRILMWHKKNGAPPLAERGKGIDPACQAAADYLSMLALQKGSKDNISIIVIDLKAQRKFKTRT | x
I383G: HAB1 mutant (protein, listed as Arabidopsis thaliana) MEEMTPAVAMTLSLAANTMCESSPVEITQLKNVTDAADLLSDSENQSFCNGGTECTMEDVSELEEVGEQDLLKTLSDTRSGSSNVFDEDDVLSVVEDNSAVISEGLLVVDAGSELSLSNTAMEIDNGRVLATAIIVGESSIEQVPTAEVLIAGVNQDTNTSEVVIRLPDENSNHLVKGRSVYELDCIPLWGTVSIQGNRSEMEDAFAVSPHFLKLPIKMLMGDHEGMSPSLTHLTGHFFGVYDGHGGHKVADYCRDRLHFALAEEIERIKDELCKRNTGEGRQVQWDKVFTSCFLTVDGEIEGKIGRAVVGSSDKVLEAVASETVGSTAVVALVCSSHIVVSNCGDSRAVLFRGKEAMPLSVDHKPDREDEYARIENAGGKVGQWQGARVFGVLAMSRSIGDRYLKPYVIPEPEVTFMPRSREDECLILASDGLWDVMNNQEVCEIARRRILMWHKKNGAPPLAERGKGIDPACQAAADYLSMLALQKGSKDNISIIVIDLKAQRKFKTRT | x
I383H: HAB1 mutant (protein, UniProt Q9CAJ0 23-511, looked up, variant I383H) Protein phosphatase 2C 16: SPVEITQLKNVTDAADLLSDSENQSFCNGGTECTMEDVSELEEVGEQDLLKTLSDTRSGSSNVFDEDDVLSVVEDNSAVISEGLLVVDAGSELSLSNTAMEIDNGRVLATAIIVGESSIEQVPTAEVLIAGVNQDTNTSEVVIRLPDENSNHLVKGRSVYELDCIPLWGTVSIQGNRSEMEDAFAVSPHFLKLPIKMLMGDHEGMSPSLTHLTGHFFGVYDGHGGHKVADYCRDRLHFALAEEIERIKDELCKRNTGEGRQVQWDKVFTSCFLTVDGEIEGKIGRAVVGSSDKVLEAVASETVGSTAVVALVCSSHIVVSNCGDSRAVLFRGKEAMPLSVDHKPDREDEYARIENAGGKVHQWQGARVFGVLAMSRSIGDRYLKPYVIPEPEVTFMPRSREDECLILASDGLWDVMNNQEVCEIARRRILMWHKKNGAPPLAERGKGIDPACQAAADYLSMLALQKGSKDNISIIVIDLKAQRKFKTRT | x
I383K: HAB1 mutant (protein, UniProt Q9CAJ0 23-511, looked up, variant I383K) Protein phosphatase 2C 16: SPVEITQLKNVTDAADLLSDSENQSFCNGGTECTMEDVSELEEVGEQDLLKTLSDTRSGSSNVFDEDDVLSVVEDNSAVISEGLLVVDAGSELSLSNTAMEIDNGRVLATAIIVGESSIEQVPTAEVLIAGVNQDTNTSEVVIRLPDENSNHLVKGRSVYELDCIPLWGTVSIQGNRSEMEDAFAVSPHFLKLPIKMLMGDHEGMSPSLTHLTGHFFGVYDGHGGHKVADYCRDRLHFALAEEIERIKDELCKRNTGEGRQVQWDKVFTSCFLTVDGEIEGKIGRAVVGSSDKVLEAVASETVGSTAVVALVCSSHIVVSNCGDSRAVLFRGKEAMPLSVDHKPDREDEYARIENAGGKVKQWQGARVFGVLAMSRSIGDRYLKPYVIPEPEVTFMPRSREDECLILASDGLWDVMNNQEVCEIARRRILMWHKKNGAPPLAERGKGIDPACQAAADYLSMLALQKGSKDNISIIVIDLKAQRKFKTRT | x
